US7932226B2, “NFκB transcriptional activity inhibitory agent and anti-inflammatory agent and a steroid action enhancing agent” (St. Marianna University School of Medicine, priority 2004, dated 2011)

Legend:
[1] = tested on: transcriptional activity of NFκB; test: NFκB-dependent luciferase assay in transfected COS-7 cells, TNFα-induced; format: cell-based
Method: COS-7 cells were plated into a 6-well plate (Falcon, catalog number: 35-3046) at 3.5 to 3.8×10^5 cells per well and cultured in a DMEM supplemented with 10% 56° C.-inactivated FBS (fetal bovine serum; HyClone, catalog number: SH30070.03) under the conditions of 5% CO2 and 37° C. After 18 hours, the medium was replaced with a DMEM containing charcoal-dextran treated (C/D treatment) FBS (C/D-FBS, HyClone, catalog number: SH30068.03). Each of the plasmids constructed in Example 2 was mixed as shown in Table 1 and each sample was prepared to be 4.12 μg and each was mixed with TransFast (product name) reagent (12.3 μl) and the mixture was incubated for 10 to 15 minutes. After the medium in each well was replaced, each plasmid DNA was added to the respective wells according to the amount shown in Table 1 and incubation was carried out for 1 hour, thus each DNA was transfected into COS-7 cells. The transfection efficiency was 34%. To the cells into which DNA was transfected as described above, after 24 hours, an inflammatory cytokine (TNFα, Sigma) at a final concentration of 1 ng/ml and a steroid agent (triamcinolone acetonide: TA, Sigma) at a final concentration of 120 nM were added. Further, after an additional 24 hours, luciferase activities in the cells were assayed using Dual Luciferase Assay System (Promega) by a luminometer (Turner BioSystems TD-20/20, Promega). The results are shown in FIG. 1, In FIG. 1, the luciferase activities indicating the transcriptional activity of NFκB is indicated on the vertical axis. The closed circles show the case where only TNFα was added, the closed triangles show the case where both TNFα and TA were added, the open triangles show the case where only TA was added and the open circles show the case where neither of TNFα nor TA was added, respectively.

[2] = MTI-II peptide administration experiment (behaviour and autopsy observation); format: in vivo; settings: 10 mg/kg intraperitoneal, ICR mice
Method: MTI-II of SEQ ID NO: 1 (Gene Bank Accession No. M24398) was purified in accordance with the purification method described in the document (Eur. J. Biochem., (2000), 267, 155-162). It was dissolved in physiological saline at a concentration of 1.0 mg/ml and intraperitoneally administered to 5 male (an average body weight of 28.4 g) and 5 female (an average body weight of 25.0 g) ICR mice at 5 weeks of age at 10 mg/kg of body weight. As a control, physiological saline was administered to 2 male and 2 female ICR mice of the same age. […] At 24 hours after the administration, they were sacrificed and autopsy was carried out and the swelling of the liver, kidney, spleen, small intestine, large intestine and thymus and the swelling of the blood vessels in the abdominal cavity were observed by the naked eye. As a result, behavioral anomaly and the swelling of the liver, kidney, spleen, small intestine, large intestine, thymus and blood vessels were not observed in all specimens.

[3] = tested on: transcriptional activity of NFκB; test: NFκB luciferase assay in the presence of coactivator p300; format: cell-based
Method: Then, in order to confirm the action site of MTI-II, the effect of MTI-II was investigated when a coactivator p300, which acts on the transcriptional activity of NFκB, was expressed.
A coactivator p300 expression plasmid (pCMVβ-p300) was purchased from Upstate. DNA transfection was carried out in the same manner as in Example 3 except that the amount of DNA was each 2.0 μg and the amount of pTri-NC or pTri-MTI was 1.0 μg. The NFκB transcriptional activity assay was carried out in the same manner as in Example 4.

[4] = tested on: transcriptional activity of NFκB; test: NFκB luciferase assay in HeLa cells with added His-tag-TAT-MTI-II protein; format: cell-based; settings: protein 30-300 μg per well added 6 hours before TNFα 1 ng/ml
Method: HeLa cells were plated into a 6-well plate at 2.0×10^5 cells per well and cultured in a DMEM (HyClone) supplemented with 10% FBS (fetal bovine serum) for 18 hours. Thereafter, the medium was replaced with a medium containing charcoal-dextran treated (C/D treatment) FBS (C/D-FBS). Further, after an additional 24 hours, each plasmid DNA blended in accordance with the amount shown in the following Table 2 was added to the respective wells, and these HeLa cells were transfected with NFκB-Luc gene.
At 24 hours after the transfection, to the HeLa cells in each well, the His-tag-TAT-MTI-II fusion protein prepared in Example 7 was added according to the amount shown in Table 3, and 6 hours thereafter, an inflammatory cytokine (TNFα, Sigma) was further added thereto in an amount to give a concentration of 1 ng/ml. After 24 hours, in the same manner as in Example 4, luciferase activities in the cells were assayed using Dual Luciferase Assay System (Promega).

[5] = OVA-sensitized rabbit knee joint inflammation model; format: in vivo, New Zealand White rabbits; settings: rabbits, 0.4 mg/ml in PBS into the right knee joint, 10 administrations in 14 days
Method: For primary sensitization, ovalbumin (OVA)+Freund's complete adjuvant (FCA) was intradermally injected once in the dorsal area of three New Zealand White rabbits. After 2 weeks, for secondary sensitization, OVA+FCA was intradermally administered once in the dorsal area. Further, for challenge administration, at 5 days after the secondary sensitization, OVA was administered once into the right knee joint. A His-tag-TAT-MTI-II solution (at 0.4 mg/ml in PBS solution) was administered into the right knee joint every other day starting from one day before the challenge administration of OVA. Incidentally, during 5 days from the next day of the challenge administration of OVA, the His-tag-TAT-MTI-II solution was administered once daily. The administration period was 14 days (number of administration: 10 times in total), and in a control group, PBS was administered into the right knee joint. An anti-inflammatory action was examined based on the blood sedimentation rate measurement and the pathological specimens of both knee joints.

TNFα [reference compound]
luciferase activity (transcriptional activity of NFκB) versus no TNFα ([1]; TNFα 1 ng/ml only, MTI-II 0 μg): about 10 times

B1: MTI-II: 102 amino acid polypeptide (SEQ ID NO: 2), same sequence as parathymosin; encoded by SEQ ID NO: 1 (protein, listed as Homo sapiens)
chain: MSEKSVEAAAELSAKDLKEKKDKVEEKAGRKERKKEVVEEEENGAEEEEEETAEDGEDDDEGDEEDEEEEEEEDEGPVRKRTAEEEDEADPKRQKTENGASA
swelling of the liver, kidney, spleen, small intestine, large intestine, thymus and blood vessels ([2]; autopsy at 24 hours, naked eye): not observed
behavioral anomaly ([2]; observed for 24 hours): not observed
transcriptional activity of NFκB ([1]; TNFα 1 ng/ml, MTI-II expressed (0-3.0 μg vector)): inhibited depending on the amount of MTI-II
NFκB transcriptional activity ([1]; TNFα, simultaneous use of MTI-II and the steroid agent (TA 120 nM)): inhibited further more
transcriptional activity of NFκB compared with the case where MTI-II was not expressed ([3]; MTI-II expressed together with p300, TNFα (pTri-MTI 1.0 μg)): inhibited to about half or more
transcriptional activity of NFκB compared with the case where MTI-II was not expressed ([3]; MTI-II expressed together with p300, TNFα, steroid agent further added): inhibited to about half or more
transcriptional activity of NFκB compared with the absence of the coactivator ([3]; MTI-II with p300, TNFα, used together with the steroid agent): inhibited to about half

B2: His-tag-TAT-MTI-II: His-tag-TAT-MTI-II fusion protein (SEQ ID NO: 11) expressed in E. coli (protein)
chain: MAHHHHHHSLVPRGSRRRQRRKKRGLQMSEKSVEAAAELSAKDLKEKKDKVEEKAGRKERKKEVVEEEENGAEEEEEETAEDGEDDDEGDEEDEEEEEEEDEGPVRKRTAEEEDEADPKRQKTENGASA
modifications: HisTag-TAT-MTI-II
transcriptional activity of NFκB [4]: inhibited depending on the amount of TAT-MTI-II
anti-inflammatory action (blood sedimentation rate, pathological specimens of knee joints) [5]: anti-inflammatory effect
